# Test results as given in paper PMC3153955.
# System: C[C@@H]1O[C@@H]1P(=O)(O)O
# Test: pyruvate kinase-lactate dehydrogenase coupled assay
# Assay type: biochemical, Streptomyces wedmorensis
# Conditions: 1 mM ATP, 10 mM MgCl2, 100 mM KCl, pH 7.2, 25 °C
substance,measurement,value
FomA (fosfomycin resistance kinase FomA) (Streptomyces wedmorensis),Km,9.9 ± 0.7 µM
same,kcat,155.9 ± 1.5 s⁻¹
